Results taken from patent US20030092632A1, “Sulfated CCR5 peptides for HIV-1 infection” (priority 2001, published 2003).

Legend:
HIV-1 = details: by associating with CD4 or gp120; literature; cited from earlier work
CCR5 = assay: flow cytometry on L1.2-CCR5+ cells, no peptide (defined as 100%), PE-streptavidin
[1] = target: envelope glycoproteins from HIV-1 strain JR-FL on NLluc+env- pseudotyped particles (HIV-1 JR-FL); assay: cell-based or functional assay
CCR5+ cells = details: pre-treatment of target cells; Farzan et al. 1999; cited from earlier work

**Q.** For dextran sulfate, which “Inhibition of HIV-1 entry” value (HIV-1) is on record?
**A.** can inhibit HIV-1 entry

**Q.** For “biotinylated gp120JR-FL/CD4-IgG2 complex”, which m.f.i. (CCR5) is on record?
**A.** 40 m.f.i.

**Q.** For CCR5 Nt peptide S-10/14, which inhibition of viral entry, luciferase-based single round of entry assay, HeLa-CD4+CCR5+ and U87MG-CD4+CCR5+ cells, peptide 100 µM [1] is on record?
**A.** 50%

**Q.** With `[Na+].[O-][Cl+2]([O-])[O-]` [sodium chlorate] as the compound, how does the “Binding of a gp120/CD4 complex to CCR5+ cells” value (CCR5+ cells) read?
**A.** decreased

**Q.** With CCR5 Nt peptide S-3/10/14 as the compound, how does the inhibition of viral entry, luciferase-based single round of entry assay, HeLa-CD4+CCR5+ and U87MG-CD4+CCR5+ cells, peptide 100 µM [1] read?
**A.** 50%
